Assay results published in PMC9482650, “Quantitative fragmentomics allow affinity mapping of interactomes” (Nature Communications, 2022).

T1: DFNB31_2, Q9P202
T1 sequence (Q9P202 274-371, limits assumed, looked up): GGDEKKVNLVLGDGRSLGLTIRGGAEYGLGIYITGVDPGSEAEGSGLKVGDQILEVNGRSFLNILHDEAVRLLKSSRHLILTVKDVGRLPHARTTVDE

T2: DLG3_2, Q92796
T2 sequence (Q92796 221-321, limits assumed, looked up): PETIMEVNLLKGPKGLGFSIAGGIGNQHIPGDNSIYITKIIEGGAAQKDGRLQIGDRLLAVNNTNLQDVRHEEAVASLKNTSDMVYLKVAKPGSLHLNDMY

T3: DLG3_3, Q92796
T3 sequence (Q92796 374-475, limits assumed, looked up): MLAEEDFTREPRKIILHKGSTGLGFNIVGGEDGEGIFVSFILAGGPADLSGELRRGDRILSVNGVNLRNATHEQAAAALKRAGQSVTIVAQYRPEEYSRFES

T4: GRIP1_2, Q9Y3R0
T4 sequence (Q9Y3R0 145-248, limits assumed, looked up): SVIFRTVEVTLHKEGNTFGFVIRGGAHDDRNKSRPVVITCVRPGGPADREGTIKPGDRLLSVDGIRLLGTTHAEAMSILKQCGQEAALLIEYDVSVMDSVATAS

T5: GRIP1_4, Q9Y3R0
T5 sequence (Q9Y3R0 467-571, limits assumed, looked up): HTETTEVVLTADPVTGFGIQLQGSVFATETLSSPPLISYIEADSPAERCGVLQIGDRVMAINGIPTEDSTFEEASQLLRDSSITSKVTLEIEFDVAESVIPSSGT

T6: HTRA3, P83110
T6 sequence (P83110 354-453, limits assumed, looked up): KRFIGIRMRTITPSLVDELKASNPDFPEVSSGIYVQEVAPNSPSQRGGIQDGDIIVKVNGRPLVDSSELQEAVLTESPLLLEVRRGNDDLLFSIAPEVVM

T7: LIN7B, Q9HAP6
T7 sequence (Q9HAP6 88-185, limits assumed, looked up): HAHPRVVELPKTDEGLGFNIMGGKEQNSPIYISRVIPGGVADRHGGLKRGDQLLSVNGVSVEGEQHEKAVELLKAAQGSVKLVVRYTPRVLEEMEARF

T8: MPDZ_10, O75970
T8 sequence (O75970 1624-1722, limits assumed, looked up): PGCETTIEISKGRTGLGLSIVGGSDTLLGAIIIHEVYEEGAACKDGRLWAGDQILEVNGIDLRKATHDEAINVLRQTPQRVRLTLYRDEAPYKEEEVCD

T9: PARD3B_1, Q8TEW8
T9 sequence (Q8TEW8 196-299, limits assumed, looked up): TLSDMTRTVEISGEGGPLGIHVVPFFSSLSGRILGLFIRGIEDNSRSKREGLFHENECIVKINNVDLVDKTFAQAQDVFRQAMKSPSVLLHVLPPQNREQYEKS

T10: PTPN13_1, Q12923
T10 sequence (Q12923 1088-1188, limits assumed, looked up): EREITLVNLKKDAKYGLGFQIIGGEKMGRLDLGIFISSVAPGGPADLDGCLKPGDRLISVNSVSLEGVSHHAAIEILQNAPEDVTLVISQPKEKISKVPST

T11: RHPN1, Q8TCX5
T11 sequence (Q8TCX5 508-602, limits assumed, looked up): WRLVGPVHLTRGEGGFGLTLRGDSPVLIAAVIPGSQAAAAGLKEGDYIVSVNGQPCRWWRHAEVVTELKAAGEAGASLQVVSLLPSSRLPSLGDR

T12: SYNJ2BP, P57105
T12 sequence (P57105 8-110, limits assumed, looked up): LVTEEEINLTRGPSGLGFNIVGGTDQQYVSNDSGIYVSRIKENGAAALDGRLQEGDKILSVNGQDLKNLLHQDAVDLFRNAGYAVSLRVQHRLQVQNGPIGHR


Key:
Assay in all cases: holdup assay
Set-up in all cases: key: below the threshold = too weak to quantify, mostly under pKd 3.1 to 4
Settings in all cases: plain residues with an end cap or a label only (N-terminal biotin on a linker: ado-ado)
DFNB31_2, Q9P202 = target: T1, DFNB31_2, Q9P202
DLG2_2, Q15700 = target: DLG2_2, Q15700
DLG3_2, Q92796 = target: T2, DLG3_2, Q92796
DLG3_3, Q92796 = target: T3, DLG3_3, Q92796
DLG4_2, P78352 = target: DLG4_2, P78352
GORASP2, Q9H8Y8 = target: GORASP2, Q9H8Y8
GRIP1_2, Q9Y3R0 = target: T4, GRIP1_2, Q9Y3R0
GRIP1_4, Q9Y3R0 = target: T5, GRIP1_4, Q9Y3R0
HTRA1, Q92743 = target: HTRA1, Q92743
HTRA3, P83110 = target: T6, HTRA3, P83110
IL16_1, Q14005 = target: IL16_1, Q14005
Inadl_10, Q8NI35 = target: Inadl_10, Q8NI35
Inadl_5, Q8NI35 = target: Inadl_5, Q8NI35
Inadl_9, Q8NI35 = target: Inadl_9, Q8NI35
LAP2, Q96RT1 = target: LAP2, Q96RT1
LIN7B, Q9HAP6 = target: T7, LIN7B, Q9HAP6
MPDZ_10, O75970 = target: T8, MPDZ_10, O75970
NHERF4_4, Q86UT5 = target: NHERF4_4, Q86UT5
NOS1, P29475 = target: NOS1, P29475
PARD3B_1, Q8TEW8 = target: T9, PARD3B_1, Q8TEW8
PTPN13_1, Q12923 = target: T10, PTPN13_1, Q12923
RHPN1, Q8TCX5 = target: T11, RHPN1, Q8TCX5
SYNJ2BP, P57105 = target: T12, SYNJ2BP, P57105
TJP1_3, Q07157 = target: TJP1_3, Q07157
TJP2_1, Q9UDY2 = target: TJP2_1, Q9UDY2
TJP2_1, Q9UDY2, sequence (Q9UDY2 24-128): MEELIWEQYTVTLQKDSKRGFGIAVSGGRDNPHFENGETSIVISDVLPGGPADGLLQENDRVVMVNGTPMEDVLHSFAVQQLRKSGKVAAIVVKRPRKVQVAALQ

HTRA1, Q92743, sequence (Q92743 360-477): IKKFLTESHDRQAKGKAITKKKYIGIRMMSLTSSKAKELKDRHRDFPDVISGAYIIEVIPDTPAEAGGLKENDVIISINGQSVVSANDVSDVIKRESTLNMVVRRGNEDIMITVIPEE
DLG4_2, P78352, sequence (P78352 155-259): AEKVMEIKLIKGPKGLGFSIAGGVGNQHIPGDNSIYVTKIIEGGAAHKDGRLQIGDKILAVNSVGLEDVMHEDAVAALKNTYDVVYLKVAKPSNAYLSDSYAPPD
LAP2, Q96RT1, sequence (Q96RT1 other isoform, or with tags, fused parts or gaps): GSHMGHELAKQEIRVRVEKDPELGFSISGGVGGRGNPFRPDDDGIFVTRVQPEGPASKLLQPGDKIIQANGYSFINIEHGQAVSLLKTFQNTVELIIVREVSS
IL16_1, Q14005, sequence (Q14005 210-306): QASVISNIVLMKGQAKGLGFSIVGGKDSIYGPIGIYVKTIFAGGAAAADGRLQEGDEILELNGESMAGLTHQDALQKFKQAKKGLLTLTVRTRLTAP
Inadl_5, Q8NI35, sequence (Q8NI35 673-780): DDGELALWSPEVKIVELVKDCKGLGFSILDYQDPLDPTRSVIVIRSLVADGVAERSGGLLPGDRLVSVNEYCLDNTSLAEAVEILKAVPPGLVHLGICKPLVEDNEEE
TJP1_3, Q07157, sequence (Q07157 416-512): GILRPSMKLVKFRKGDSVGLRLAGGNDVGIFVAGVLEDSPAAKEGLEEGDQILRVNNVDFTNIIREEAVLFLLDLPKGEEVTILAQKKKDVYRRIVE
NOS1, P29475, sequence (P29475 9-101): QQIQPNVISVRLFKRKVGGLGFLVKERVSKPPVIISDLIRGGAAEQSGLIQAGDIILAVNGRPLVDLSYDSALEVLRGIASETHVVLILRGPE
Inadl_10, Q8NI35, sequence (Q8NI35 1673-1763): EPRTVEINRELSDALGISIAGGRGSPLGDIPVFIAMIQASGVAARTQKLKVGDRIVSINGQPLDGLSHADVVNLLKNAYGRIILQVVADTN
DLG2_2, Q15700, sequence (Q15700 189-283): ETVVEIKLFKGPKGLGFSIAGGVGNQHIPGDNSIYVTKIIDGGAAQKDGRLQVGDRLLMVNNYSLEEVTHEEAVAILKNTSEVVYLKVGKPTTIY
Inadl_9, Q8NI35, sequence (Q8NI35 1530-1615): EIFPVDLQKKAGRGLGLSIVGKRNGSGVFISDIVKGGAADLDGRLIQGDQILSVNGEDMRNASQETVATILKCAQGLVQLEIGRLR
NHERF4_4, Q86UT5, sequence (Q86UT5 464-550): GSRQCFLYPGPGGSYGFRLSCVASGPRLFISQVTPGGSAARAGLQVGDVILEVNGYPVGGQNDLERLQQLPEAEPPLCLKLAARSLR

Binder | pKd (DFNB31_2, Q9P202) | pKd (DLG2_2, Q15700) | pKd (DLG3_2, Q92796) | pKd (DLG3_3, Q92796) | pKd (DLG4_2, P78352) | pKd (GORASP2, Q9H8Y8) | pKd (GRIP1_2, Q9Y3R0) | pKd (GRIP1_4, Q9Y3R0) | pKd (HTRA1, Q92743) | pKd (HTRA3, P83110) | pKd (IL16_1, Q14005) | pKd (Inadl_10, Q8NI35) | pKd (Inadl_5, Q8NI35) | pKd (Inadl_9, Q8NI35) | pKd (LAP2, Q96RT1) | pKd (LIN7B, Q9HAP6) | pKd (MPDZ_10, O75970) | pKd (NHERF4_4, Q86UT5) | pKd (NOS1, P29475) | pKd (PARD3B_1, Q8TEW8) | other results
PALKNGQYWV [CSPG4, Q6UVK1] | below the threshold | below the threshold | below the threshold | below the threshold | below the threshold | 5.82 | below the threshold | below the threshold | 5.1 | 5.46 | 3.79 | below the threshold | 4.31 | 4.16 | 3.75 | below the threshold | below the threshold | 4.05 | 4.09 | 3.71 | pKd (PTPN13_1, Q12923): below the threshold; pKd (RHPN1, Q8TCX5): below the threshold; pKd (SYNJ2BP, P57105): below the threshold; pKd (TJP1_3, Q07157): 3.95; pKd (TJP2_1, Q9UDY2): 4.6
YAEKRMLTEV [KCNA6, P17658] | below the threshold | 4.15 | 4.6 | below the threshold | 4.23 | 3.92 | below the threshold | below the threshold | 3.91 | below the threshold | below the threshold | below the threshold | below the threshold | below the threshold | below the threshold | 3.65 | below the threshold | below the threshold | below the threshold | below the threshold | pKd (PTPN13_1, Q12923): below the threshold; pKd (RHPN1, Q8TCX5): 3.8; pKd (SYNJ2BP, P57105): 4.05; pKd (TJP1_3, Q07157): below the threshold; pKd (TJP2_1, Q9UDY2): below the threshold
PEKVSNTTVV [IGSF5, Q9NSI5] | below the threshold | 4.44 | 4.73 | below the threshold | 4.49 | 4.33 | below the threshold | below the threshold | 4.49 | below the threshold | below the threshold | below the threshold | below the threshold | below the threshold | below the threshold | 3.69 | below the threshold | below the threshold | 3.64 | below the threshold | pKd (PTPN13_1, Q12923): below the threshold; pKd (RHPN1, Q8TCX5): 3.67; pKd (SYNJ2BP, P57105): 3.51; pKd (TJP1_3, Q07157): below the threshold; pKd (TJP2_1, Q9UDY2): below the threshold
FLVTEFNVML [DFNB31, Q9P202] | below the threshold | below the threshold | below the threshold | below the threshold | below the threshold | below the threshold | below the threshold | below the threshold | 4.4 | below the threshold | below the threshold | below the threshold | below the threshold | below the threshold | below the threshold | below the threshold | below the threshold | 4.84 | below the threshold | 5.21 | pKd (PTPN13_1, Q12923): below the threshold; pKd (RHPN1, Q8TCX5): below the threshold; pKd (SYNJ2BP, P57105): below the threshold; pKd (TJP1_3, Q07157): below the threshold; pKd (TJP2_1, Q9UDY2): below the threshold

Second part, led by results:

pKd (DFNB31_2, Q9P202) | pKd (DLG2_2, Q15700) | pKd (DLG3_2, Q92796) | pKd (DLG3_3, Q92796) | pKd (DLG4_2, P78352) | pKd (GORASP2, Q9H8Y8) | pKd (GRIP1_2, Q9Y3R0) | pKd (GRIP1_4, Q9Y3R0) | pKd (HTRA1, Q92743) | pKd (HTRA3, P83110) | pKd (IL16_1, Q14005) | pKd (Inadl_10, Q8NI35) | pKd (Inadl_5, Q8NI35) | pKd (Inadl_9, Q8NI35) | pKd (LAP2, Q96RT1) | pKd (LIN7B, Q9HAP6) | pKd (MPDZ_10, O75970) | pKd (NHERF4_4, Q86UT5) | pKd (NOS1, P29475) | pKd (PARD3B_1, Q8TEW8) | Binder | other results
below the threshold | 3.86 | 4.21 | 3.75 | 4.09 | 3.67 | below the threshold | below the threshold | 3.53 | below the threshold | below the threshold | below the threshold | below the threshold | below the threshold | below the threshold | 3.68 | below the threshold | 4.01 | below the threshold | below the threshold | AHGSTRDQSI [KCNB1, Q14721] | pKd (PTPN13_1, Q12923): below the threshold; pKd (RHPN1, Q8TCX5): below the threshold; pKd (SYNJ2BP, P57105): below the threshold; pKd (TJP1_3, Q07157): 3.48; pKd (TJP2_1, Q9UDY2): below the threshold
below the threshold | below the threshold | below the threshold | 3.6 | 3.58 | below the threshold | below the threshold | below the threshold | 3.92 | below the threshold | below the threshold | below the threshold | below the threshold | below the threshold | below the threshold | below the threshold | below the threshold | below the threshold | 3.5 | 4.43 | EAVTVESTSL [SLC22A11, Q9NSA0] | pKd (PTPN13_1, Q12923): below the threshold; pKd (RHPN1, Q8TCX5): 4.86; pKd (SYNJ2BP, P57105): 4.15; pKd (TJP1_3, Q07157): below the threshold; pKd (TJP2_1, Q9UDY2): below the threshold
